Measurements reported in patent US11078259B2, “Methods and compositions for promoting thermogenic potential” (Joslin Diabetes Center, Inc., priority 2015, dated 2021).

What was measured:
hWAT-SVF clones = assay: Clonal analysis: UCP1-luciferase response to BMP7 pretreatment; format: cell-based, human; settings: for clones UCP1(+), BMP7 Resp(+) / clones UCP1 (−), BMP7 Resp(+) / clones UCP1(−), BMP7 Resp(−): hWAT-SVF clones
Method: (§1) FIG. 8 depicts clonal analysis of human brown and white fat progenitors. Specifically, the strategy of clonal analysis of hWAT-SVF and hBAT-SVF progenitors is shown as a dendrogram. 152 clones from hWAT-SVF and 128 clones from hBAT-SVF were derived by limiting dilution from 4 subjects. Adipogenic capacity was determined by Nile red staining and UCP1 level was determined by luciferase activity on day 18. Detailed selection criteria are described in FIGS. 9 and 10. Selected highly adipogenic clones (adipogenic++) were pre-treated with 3.3 nM BMP7 for 6 days and then differentiated into mature adipocytes in a 96-well plate. Luciferase activity was measured on day 18 and divided into different levels (negative, Neg; low; medium, Med; high) after normalized to protein content. The positive response (+) to BMP7 pretreatment was defined by more than 1.5-fold increase of luciferase activity between BMP7-pretreated and vehicle groups.
(§2) Immortalized progenitor cells were plated and grown in DMEM/H medium supplemented with 10% FBS (day 0). For adipocyte differentiation, cell were grown for 6 days until reaching confluence (day 6), and then treated with the adipogenic induction medium as described above for 12 days (termed as day 18). To further stimulate thermogenic program, fully differentiated cells were incubated with 10 μM forskolin for 4 h. For BMPs and FGF21 pre-treatment, recombinant BMP7 (3.3 nM), BMP8 (3.3 nM), or FGF21 (50 nM) were added to undifferentiated cells in medium containing insulin (0.5 μM), T3 (2 nM) and 2% FBS for 6 days followed by adipogenic induction for 12 days. For BMPs and FGF21 post-treatment, fully differentiated adipocytes at day 18 were treated with recombinant BMP7 (3.3 nM), BMP8 (3.3 nM), or FGF21 (50 nM) in medium containing insulin (0.5 μM), T3 (2 nM) and 2% FBS for 2 days.
(§3) In vitro luciferase assays were performed using luciferase assay kits (Promega, Madison, Wis.) according to the manufacturer's instructions. Remove culture medium from differentiated adipocytes and wash cells in PBS. Dispense an appropriate volume of 1× lysis reagent (Passive Lysis Buffer) into each culture well. Scrape attached cells from the wells, and transfer the cell lysates into white 96-well plate (Corning Inc., Tewksbury, Mass.) for detection of the bioluminescence signal using luminometer plate reader (BioTek Instruments, Inc., Winooski, Vt.). Use a reagent injector to dispense 100 μL of Luciferase assay buffer with substrate and 100 μL of Stop & Glo Reagent. And perform a 2-second pre-measurement delay, followed by a 10-second measurement period for each reporter assay. Luciferase activity data were normalized to protein content.
(§4) To derive subclones of immortalized human white and brown progenitors with hUCP1-promoter-Luc/GFP reporter, limiting dilution of cells into 96-well plates was performed as previously described (Tchkonia, T., et al. Diabetes 55, 2571-2578, 2006). Briefly, cells were plated at 50 cells/96-well plate in DMEM/H containing 10% FBS. After 2 weeks, colonies were evident. Cells at approximately 80% confluence were trypsinized and further propagated in 48-well, then 12-well and finally 6-well plate. 152 clonal lines originated from neck superficial fat depot and 128 clonal lines from deep fat were selected for adipogenic potential after induction. The highly adipogenic clonal lines were selected for further analysis (67 clonal white fat progenitor lines; 90 clonal brown fat progenitor lines).

hBAT-SVF clones = assay: as above; format: cell-based, human
Method: as §1, §2, §3, §4

clones UCP1(+), BMP7 Resp(+) (hWAT-SVF clones; Subject 1): 0/32 | clones UCP1 (−), BMP7 Resp(+) (hWAT-SVF clones; Subject 1): 0/32 | clones UCP1(−), BMP7 Resp(−) (hWAT-SVF clones; Subject 1): 32/32 | clones UCP1(+), BMP7 Resp(+) (hWAT-SVF clones; Subject 2): 0/20 | clones UCP1 (−), BMP7 Resp(+) (hWAT-SVF clones; Subject 2): 0/20 | clones UCP1(−), BMP7 Resp(−) (hWAT-SVF clones; Subject 2): 20/20 | clones UCP1(+), BMP7 Resp(+) (hWAT-SVF clones; Subject 3): 1/12 | clones UCP1 (−), BMP7 Resp(+) (hWAT-SVF clones; Subject 3): 0/12 | clones UCP1(−), BMP7 Resp(−) (hWAT-SVF clones; Subject 3): 11/12 | clones UCP1(+), BMP7 Resp(+) (hWAT-SVF clones; Subject 4): 0/3 | clones UCP1 (−), BMP7 Resp(+) (hWAT-SVF clones; Subject 4): 0/3 | clones UCP1(−), BMP7 Resp(−) (hWAT-SVF clones; Subject 4): 3/3 | clones that could respond to BMP7 pretreatment (hWAT-SVF clones; highly adipogenic hWAT-SVF clones, response = more than 1.5-fold increase of luciferase activity): 1% | clones that could respond to BMP7 stimulation (hBAT-SVF clones; hBAT-SVF clones from Subject 2 and Subject 3): more than 60% | clones UCP1(+), BMP7 Resp(+) (hBAT-SVF clones; hBAT-SVF clones, Subject 1): 10/41 | clones UCP1(+), BMP7 Resp(−) (hBAT-SVF clones; hBAT-SVF clones, Subject 1): 29/41 | clones UCP1(+), BMP7 Resp(−), percent (hBAT-SVF clones; hBAT-SVF clones, Subject 1): (71%) | clones UCP1(−), BMP7 Resp(−) (hBAT-SVF clones; hBAT-SVF clones, Subject 1): 2/41 | clones UCP1(+), BMP7 Resp(+) (hBAT-SVF clones; hBAT-SVF clones, Subject 2): 10/15 | clones UCP1(+), BMP7 Resp(+), percent (hBAT-SVF clones; hBAT-SVF clones, Subject 2): (67%) | clones UCP1(+), BMP7 Resp(−) (hBAT-SVF clones; hBAT-SVF clones, Subject 2): 5/15 | clones UCP1(−), BMP7 Resp(−) (hBAT-SVF clones; hBAT-SVF clones, Subject 2): 0/15 | clones UCP1(+), BMP7 Resp(+) (hBAT-SVF clones; hBAT-SVF clones, Subject 3): 9/15 | clones UCP1(+), BMP7 Resp(+), percent (hBAT-SVF clones; hBAT-SVF clones, Subject 3): (60%) | clones UCP1(+), BMP7 Resp(−) (hBAT-SVF clones; hBAT-SVF clones, Subject 3): 3/15 | clones UCP1(−), BMP7 Resp(−) (hBAT-SVF clones; hBAT-SVF clones, Subject 3): 3/15 | clones UCP1(+), BMP7 Resp(+) (hBAT-SVF clones; hBAT-SVF clones, Subject 4): 5/19 | clones UCP1(+), BMP7 Resp(−) (hBAT-SVF clones; hBAT-SVF clones, Subject 4): 14/19 | clones UCP1(+), BMP7 Resp(−), percent (hBAT-SVF clones; hBAT-SVF clones, Subject 4): (74%) | clones UCP1(−), BMP7 Resp(−) (hBAT-SVF clones; hBAT-SVF clones, Subject 4): 0/19 | clones that could be induced by BMP7 pretreatment (hBAT-SVF clones; hBAT-SVF clones, all subjects, response = more than 1.5-fold increase of luciferase activity): up to 37% | response to BMP7 pretreatment (hBAT-SVF clones; majority of the hBAT-SVF clones from Subject 1 and Subject 4): not responsive
B1: BMP7: Recombinant human BMP7, an inducer of brown adipogenesis (protein, UniProt P18075 293-431, looked up)
Bone morphogenetic protein 7: STGSKQRSQNRSKTPKNQEALRMANVAENSSSDQRQACKKHELYVSFRDLGWQDWIIAPEGYAAYYCEGECAFPLNSYMNATNHAIVQTLVHFINPETVPKPCCAPTQLNAISVLYFDDSSNVILKKYRNMVVRACGCH
